Assay results published in US20200385427A1.
Starred links: 1 amine or outer side, 2 acyl side, 3 side chain; linkers in the order of their positions; H or OH if unused. Non-standard residues stand in square brackets, D forms with d. No end group written: not given here. Trimesoyl = O=C(c1cc(C(=O)[*:2])cc(C(=O)[*:3])c1)[*:1]; F2Pmp = N[C@@H](Cc1ccc(C(F)(F)P(=O)(O)O)cc1)C(=O)O; Phe(4-F) = N[C@@H](Cc1ccc(F)cc1)C(=O)O; dPhe(4-F) = N[C@H](Cc1ccc(F)cc1)C(=O)O; 2Nal = N[C@@H](Cc1ccc2ccccc2c1)C(=O)O; Phg = N[C@H](C(=O)O)c1ccccc1; Pip = O=C(O)[C@@H]1CCCCN1; Nle = CCCC[C@H](N)C(=O)O; Dap = NC[C@H](N)C(=O)O; Sar = CNCC(=O)O

Experiments:
[1] = biological target: ybbR-tagged PTP1B catalytic domain (amino acids 1-321) (UniProt P18031); assay: cell-based or functional assay
Pin1 (human) [2] = biological target: Pin1 (human) (UniProt Q13526); assay: cell-based or functional assay
[3] = biological target: full-length human S16A/Y23A mutant Pin1 (human) (UniProt Q13526); assay: fluorescence anisotropy, FITC-labeled peptide
Pin1 (human) [4] = biological target: Pin1 (human) (UniProt Q13526); assay: fluorescence anisotropy, FITC-labeled peptide
[5] = biological target: MBP-Pin1 (S16A/Y23A mutant Pin1 as a maltose-binding protein fusion at the N-terminus) (UniProt Q13526); assay: FA of TMR-labeled peptide released from the bead, 5 µM MBP-Pin1

ybbR-tagged PTP1B catalytic domain (amino acids 1-321), sequence (P18031 other isoform, or with tags, fused parts or gaps limits assumed): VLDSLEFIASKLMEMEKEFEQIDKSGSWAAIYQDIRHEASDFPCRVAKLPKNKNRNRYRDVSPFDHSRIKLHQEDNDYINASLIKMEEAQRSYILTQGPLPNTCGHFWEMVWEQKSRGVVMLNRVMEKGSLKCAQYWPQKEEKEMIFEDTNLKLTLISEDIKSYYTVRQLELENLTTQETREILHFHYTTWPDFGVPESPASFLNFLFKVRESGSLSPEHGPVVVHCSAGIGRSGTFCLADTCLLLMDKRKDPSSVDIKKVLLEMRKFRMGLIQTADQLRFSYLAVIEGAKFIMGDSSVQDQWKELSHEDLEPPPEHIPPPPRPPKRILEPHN

B1: Monocyclic Inhibitor 1 (peptide)
peptide: cyclo([dT][dN][dV][F2Pmp][dA]RRRR[2Nal]FQ)
SMILES: CC(C)[C@H]1NC(=O)[C@@H](CC(N)=O)NC(=O)[C@@H]([C@H](C)O)NC(=O)[C@H](CCC(N)=O)NC(=O)[C@H](Cc2ccccc2)NC(=O)[C@H](Cc2ccc3ccccc3c2)NC(=O)[C@H](CCCNC(=N)N)NC(=O)[C@H](CCCNC(=N)N)NC(=O)[C@H](CCCNC(=N)N)NC(=O)[C@H](CCCNC(=N)N)NC(=O)[C@@H](C)NC(=O)[C@H](Cc2ccc(C(F)(F)P(=O)(O)O)cc2)NC1=O
IC50 (inhibition of pNPP hydrolysis) [1]: 100 nM

B2: Monocyclic Inhibitor 3 (peptide)
peptide: cyclo(IP[Phg][F2Pmp][Nle]RRRR[2Nal]FQ)
IC50 (inhibition of pNPP hydrolysis) [1]: 200 nM

B3: peptide 37 (Table 18) (peptide)
peptide: Trimesoyl-[dPhe(4-F)][Phe(4-F)][dT][Pip][2Nal]RA[dF][Dap]F[2Nal]RRRR[Dap]K
modifications: linker (positions not given here) via Trimesoyl; not fully specified (C-terminus, bridges); printed as bicyclo[Tm-(D-4-Fpa-Fpa-D-Thr-Pip-Nal-Arg-Ala-D-Phe)-Dap-(Phe-Nal-Arg-Arg-Arg-Arg-Dap)]-Lys
IC50 (HeLa cell growth, MTT assay) (Pin1 (human) [2]): 1000 nM | IC50 (cis-trans isomerase activity toward Suc-Ala-Glu-Pro-Phe-pNA) (Pin1 (human) [2]): 170 nM | PML protein level in HeLa cells (western blot), at 0.2 µM inhibitor (Pin1 (human) [2]): 1.8 fold | PML protein level in HeLa cells (western blot), at ˜1 µM inhibitor (Pin1 (human) [2]): 3.3 fold

B4: Pin1 inhibitor 7 (peptide)
peptide: XAXXXXRAAXFXRRRRXK
modifications: not fully specified; bicyclo[Tm(D-Ala-Sar-D-pThr-Pip-Nal-Arg-Ala-D-Ala)-Dap-(Phe-Nal-Arg-Arg-Arg-Arg-Dap)]-Lys-NH2
fold improvement of potency against inhibitor 6 [3]: 2 fold | IC50 (HeLa cell growth, MTT assay) (Pin1 (human) [2]): 1800 nM | PML protein level in HeLa cells (western blot), at 5 µM (Pin1 (human) [2]): 3.1 fold

B5: Pin1 inhibitor 5 (peptide)
peptide: AXXXXYQK
modifications: cyclo(D-Ala-Sar-D-pThr-Pip-Nal-Tyr-Gln)-Lys-NH2
Kd (Pin1 (human) [4]): 240 nM

B6: peptide 4 (Table 18) (peptide)
peptide: Trimesoyl-[dF][Phe(4-F)][dT][Pip][2Nal]RA[dA][Dap]F[2Nal]RRRR[Dap]K
modifications: linker (positions not given here) via Trimesoyl; not fully specified (C-terminus, bridges); printed as bicyclo[Tm-(D-Phe-Fpa-D-Thr-Pip-Nal-Arg-Ala-D-Ala)-Dap-(Phe-Nal-Arg-Arg-Arg-Arg-Dap)]-Lys
Kd (Pin1 (human) [4]): 1000 nM

B7: peptide 6 (Table 18) (peptide)
peptide: XXHEXXRAAXFXRRRRXK
modifications: not fully specified; bicyclo[Tm-(Phg-His-D-Glu-Pip-Nal-Arg-Ala-D-Ala)-Dap-(Phe-Nal-Arg-Arg-Arg-Arg-Dap)]-Lys
Kd (Pin1 (human) [4]): 1000 nM | FA increase relative to the no-protein control [5]: > 50%

B8: peptide 7 (Table 18) (peptide)
peptide: XXIEXXRAAXFXRRRRXK
modifications: not fully specified; bicyclo[Tm-(Mpa-Ile-D-Glu-Pip-Nal-Arg-Ala-D-Ala)-Dap-(Phe-Nal-Arg-Arg-Arg-Arg-Dap)]-Lys
Kd (Pin1 (human) [4]): 1000 nM | FA increase relative to the no-protein control [5]: > 50%

B9: peptide 8 (Table 18) (peptide)
peptide: XHXTXXRAAXFXRRRRXK
modifications: not fully specified; bicyclo[Tm-(His-Phg-D-Thr-Pip-Nal-Arg-Ala-D-Ala)-Dap-(Phe-Nal-Arg-Arg-Arg-Arg-Dap)]-Lys
Kd (Pin1 (human) [4]): 1000 nM | FA increase relative to the no-protein control [5]: > 50%

B10: peptide 22 (Table 18) (peptide)
peptide: Trimesoyl-P[Sar][dD][Pip][2Nal]RR[dF][Dap]F[2Nal]RRRR[Dap]K
modifications: linker (positions not given here) via Trimesoyl; not fully specified (C-terminus, bridges); printed as bicyclo[Tm-(Pro-Sar-D-Asp-Pip-Nal-Arg-Arg-D-Phe)-Dap-(Phe-Nal-Arg-Arg-Arg-Arg-Dap)]-Lys
fold increase of Pin1 inhibitory activity against the D-Ala parent (Pin1 (human) [4]): 2 fold
